According to the supplement of paper PMC9112550, “Optimization of the antimicrobial peptide Bac7 by deep mutational scanning” (BMC Biology, 2022):

Test system: Escherichia coli TOP10
Assay: shrunken log2 fold change of peptide-encoding DNA abundance (4.5 h post-induction vs induction); higher = less antimicrobial activity (less host growth inhibition)
Conditions: time post-induction: 4.5 h; library: site-saturation at positions 5, 18, 19, 20
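Note: peptides expressed intracellularly from a pBAD plasmid library in pooled LB shake-flask culture, induced with 0.3% L-arabinose, DNA abundance read by NGS, three biological replicates, DESeq2 with apeglm shrinkage.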

RRIRPRPPRLPRPRPRPPWCPRP and RRIRPRPPRLPRPRPRPPYAPRP are within 0.2 log units of each other in “shrunken log2 fold change” value: 0.0891 for the first, 0.193 for the second.

RRIRPRPPRLPRPRPRPPYKPRP and RRIRPRPPRLPRPRPRPQACPRP are within 0.2 log units of each other in “shrunken log2 fold change” value: -0.113 for the first, -0.0282 for the second.

Going from RRIRPRPPRLPRPRPRPQAPPRP to RRIRPRPPRLPRPRPRPQCKPRP, the “shrunken log2 fold change” value falls from -0.0721 to -0.398.

RRIRPRPPRLPRPRPRPQCNPRP and RRIRPRPPRLPRPRPRPQCVPRP are within 0.2 log units of each other in “shrunken log2 fold change” value: -0.0419 for the first, 0.14 for the second.

RRIRPRPPRLPRPRPRPQFLPRP and RRIRPRPPRLPRPRPRPQFPPRP are within 0.2 log units of each other in “shrunken log2 fold change” value: -0.164 for the first, 0.0341 for the second.

RRIRPRPPRLPRPRPRPQGDPRP and RRIRPRPPRLPRPRPRPQGHPRP are within 0.2 log units of each other in “shrunken log2 fold change” value: 0.243 for the first, 0.05 for the second.

RRIRPRPPRLPRPRPRPQHLPRP and RRIRPRPPRLPRPRPRPQIDPRP are within 0.2 log units of each other in “shrunken log2 fold change” value: -0.172 for the first, -0.0108 for the second.

Compared with RRIRPRPPRLPRPRPRPQIGPRP, RRIRPRPPRLPRPRPRPQIIPRP is lower in “shrunken log2 fold change” value: 0.128 for the first, -0.447 for the second.

Compared with RRIRPRPPRLPRPRPRPQIVPRP, RRIRPRPPRLPRPRPRPQLEPRP is higher in “shrunken log2 fold change” value: -0.594 for the first, 0.376 for the second.

RRIRPRPPRLPRPRPRPQLVPRP and RRIRPRPPRLPRPRPRPQMEPRP are within 0.2 log units of each other in “shrunken log2 fold change” value: 0.0126 for the first, 0.0168 for the second.

RRIRPRPPRLPRPRPRPQNDPRP and RRIRPRPPRLPRPRPRPQNKPRP are within 0.2 log units of each other in “shrunken log2 fold change” value: -0.371 for the first, -0.479 for the second.

RRIRPRPPRLPRPRPRPQNPPRP and RRIRPRPPRLPRPRPRPQNVPRP are within 0.2 log units of each other in “shrunken log2 fold change” value: -0.216 for the first, -0.212 for the second.

Compared with RRIRPRPPRLPRPRPRPQPFPRP, RRIRPRPPRLPRPRPRPQPNPRP is higher in “shrunken log2 fold change” value: -0.149 for the first, 0.185 for the second.

RRIRPRPPRLPRPRPRPQQEPRP and RRIRPRPPRLPRPRPRPQRFPRP are within 0.2 log units of each other in “shrunken log2 fold change” value: 0.0468 for the first, 0.0622 for the second.

RRIRPRPPRLPRPRPRPQRHPRP and RRIRPRPPRLPRPRPRPQSDPRP are within 0.2 log units of each other in “shrunken log2 fold change” value: -0.14 for the first, 0.0199 for the second.

RRIRPRPPRLPRPRPRPQWAPRP and RRIRPRPPRLPRPRPRPQWPPRP are within 0.2 log units of each other in “shrunken log2 fold change” value: 0.052 for the first, -0.0484 for the second.

Compared with RRIRPRPPRLPRPRPRPQWRPRP, RRIRPRPPRLPRPRPRPQYYPRP is lower in “shrunken log2 fold change” value: 0.308 for the first, -0.422 for the second.

Compared with RRIRPRPPRLPRPRPRPRAAPRP, RRIRPRPPRLPRPRPRPRADPRP is lower in “shrunken log2 fold change” value: 0.611 for the first, 0.335 for the second.

Compared with RRIRPRPPRLPRPRPRPRAFPRP, RRIRPRPPRLPRPRPRPRAKPRP is higher in “shrunken log2 fold change” value: 0.32 for the first, 0.692 for the second.

RRIRPRPPRLPRPRPRPRCCPRP and RRIRPRPPRLPRPRPRPRDEPRP are within 0.2 log units of each other in “shrunken log2 fold change” value: 0.119 for the first, 0.0975 for the second.

Going from RRIRPRPPRLPRPRPRPRGEPRP to RRIRPRPPRLPRPRPRPRGQPRP, the “shrunken log2 fold change” value falls from 0.646 to 0.204.

First: RRIRPRPPRLPRPRPRPRHPPRP
Second: RRIRPRPPRLPRPRPRPRKTPRP
The “shrunken log2 fold change” value of the first is higher: 0.357 for the first, 0.0393 for the second.

RRIRPRPPRLPRPRPRPRLPPRP and RRIRPRPPRLPRPRPRPRLRPRP are within 0.2 log units of each other in “shrunken log2 fold change” value: 0.383 for the first, 0.458 for the second.

Going from RRIRPRPPRLPRPRPRPRLVPRP to RRIRPRPPRLPRPRPRPRMRPRP, the “shrunken log2 fold change” value rises from 0.323 to 0.92.

RRIRPRPPRLPRPRPRPRNEPRP and RRIRPRPPRLPRPRPRPRNSPRP are within 0.2 log units of each other in “shrunken log2 fold change” value: 0.139 for the first, 0.0183 for the second.

First: RRIRPRPPRLPRPRPRPRPQPRP
Second: RRIRPRPPRLPRPRPRPRRKPRP
The “shrunken log2 fold change” value of the first is higher: 0.634 for the first, 0.166 for the second.

Compared with RRIRPRPPRLPRPRPRPRSKPRP, RRIRPRPPRLPRPRPRPRSTPRP is higher in “shrunken log2 fold change” value: -0.149 for the first, 0.347 for the second.

Going from RRIRPRPPRLPRPRPRPRTAPRP to RRIRPRPPRLPRPRPRPRTCPRP, the “shrunken log2 fold change” value falls from 0.562 to 0.322.

RRIRPRPPRLPRPRPRPRTDPRP and RRIRPRPPRLPRPRPRPRTRPRP are within 0.2 log units of each other in “shrunken log2 fold change” value: 0.165 for the first, 0.187 for the second.

Compared with RRIRPRPPRLPRPRPRPRYGPRP, RRIRPRPPRLPRPRPRPRYIPRP is lower in “shrunken log2 fold change” value: 0.00536 for the first, -0.602 for the second.

Compared with RRIRPRPPRLPRPRPRPRYWPRP, RRIRPRPPRLPRPRPRPSCNPRP is lower in “shrunken log2 fold change” value: 0.0515 for the first, -0.314 for the second.

RRIRPRPPRLPRPRPRPSCRPRP and RRIRPRPPRLPRPRPRPSDCPRP are within 0.2 log units of each other in “shrunken log2 fold change” value: -0.129 for the first, -0.0743 for the second.

Going from RRIRPRPPRLPRPRPRPSESPRP to RRIRPRPPRLPRPRPRPSGHPRP, the “shrunken log2 fold change” value falls from 0.000106 to -0.395.

Compared with RRIRPRPPRLPRPRPRPSGLPRP, RRIRPRPPRLPRPRPRPSHCPRP is lower in “shrunken log2 fold change” value: -0.199 for the first, -0.666 for the second.

RRIRPRPPRLPRPRPRPSHIPRP and RRIRPRPPRLPRPRPRPSIQPRP are within 0.2 log units of each other in “shrunken log2 fold change” value: -0.505 for the first, -0.696 for the second.

RRIRPRPPRLPRPRPRPSKMPRP and RRIRPRPPRLPRPRPRPSLMPRP are within 0.2 log units of each other in “shrunken log2 fold change” value: -0.169 for the first, -0.155 for the second.

RRIRPRPPRLPRPRPRPSLQPRP and RRIRPRPPRLPRPRPRPSMCPRP are within 0.2 log units of each other in “shrunken log2 fold change” value: 0.0128 for the first, -0.0117 for the second.

RRIRPRPPRLPRPRPRPSMWPRP was tested, and the “shrunken log2 fold change” value was -0.252.
